{
  "source": "patent US20080269139A1",
  "about": "(GENENCOR INTERNATIONAL, published 2008)",
  "data": [
    {"biological_target": "T1, FGF-5 (UniProt P12034 23-268, limits assumed, biotinylated with EZ-Link Sulfo-NHS-Biotin in the BioVeris assay only)", "T1 construct": "also called bFGF5 (biotinylated, BioVeris assay); FGF-5, carrier-free (R&D Systems #237-F5/CF)", "T1 sequence (looked up)": "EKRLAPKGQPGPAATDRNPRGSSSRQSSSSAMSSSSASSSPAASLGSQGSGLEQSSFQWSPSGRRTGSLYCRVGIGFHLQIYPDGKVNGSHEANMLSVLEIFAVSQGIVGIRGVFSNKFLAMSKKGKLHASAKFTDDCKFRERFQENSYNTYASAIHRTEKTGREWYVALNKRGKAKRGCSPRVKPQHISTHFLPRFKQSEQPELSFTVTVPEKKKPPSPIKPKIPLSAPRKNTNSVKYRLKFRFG", "assay": "BLA binding assay, purified peptide-BLA fusion on FGF-5-coated plate, nitrocefin", "units": {"Percent Bound at 0.1 nM": "%"}, "values": [
      {"binder": "2H9 peptide-BLA fusion (other) CHYLLTNYCTPVSEKQLAEVVANTITPLMKAQSVPGMAVAVIYQGKPHYYTFGKADIAANKPVTPQTLFELGSISKTFTGVLGGDAIARGEISLDDAVTRYWPQLTGKQWQGIRMLDLATYTAGGLPLQVPDEVTDNASLLRFYQNWQPQWKPGTTRLYANASIGLFGALAVKPSGMPYEQAMTTRVLKPLKLDHTWINVPKAEEAHYAWGYRDGKAVRVSPGMLDAQAYGVKTNVQDMANWVMANMAPENVADASLKQGIALAQSRYWRIGSMYQGLGWEMLNWPVEANTVVEGSDSKVALAPLPVAEVNPPAPPVKASWVHKTGSTGGFGSYVAFIPEKQIGIVMLANTSYPNPARVEAAYHILEALQHHHHHH", "Percent Bound at 0.1 nM": 5},
      {"binder": "2E2 peptide-BLA fusion (other) CLTVLWTTCTPVSEKQLAEVVANTITPLMKAQSVPGMAVAVIYQGKPHYYTFGKADIAANKPVTPQTLFELGSISKTFTGVLGGDAIARGEISLDDAVTRYWPQLTGKQWQGIRMLDLATYTAGGLPLQVPDEVTDNASLLRFYQNWQPQWKPGTTRLYANASIGLFGALAVKPSGMPYEQAMTTRVLKPLKLDHTWINVPKAEEAHYAWGYRDGKAVRVSPGMLDAQAYGVKTNVQDMANWVMANMAPENVADASLKQGIALAQSRYWRIGSMYQGLGWEMLNWPVEANTVVEGSDSKVALAPLPVAEVNPPAPPVKASWVHKTGSTGGFGSYVAFIPEKQIGIVMLANTSYPNPARVEAAYHILEALQHHHHHH", "Percent Bound at 0.1 nM": 7},
      {"binder": "1A6 peptide-BLA fusion (other) CEEIWTMLCTPVSEKQLAEVVANTITPLMKAQSVPGMAVAVIYQGKPHYYTFGKADIAANKPVTPQTLFELGSISKTFTGVLGGDAIARGEISLDDAVTRYWPQLTGKQWQGIRMLDLATYTAGGLPLQVPDEVTDNASLLRFYQNWQPQWKPGTTRLYANASIGLFGALAVKPSGMPYEQAMTTRVLKPLKLDHTWINVPKAEEAHYAWGYRDGKAVRVSPGMLDAQAYGVKTNVQDMANWVMANMAPENVADASLKQGIALAQSRYWRIGSMYQGLGWEMLNWPVEANTVVEGSDSKVALAPLPVAEVNPPAPPVKASWVHKTGSTGGFGSYVAFIPEKQIGIVMLANTSYPNPARVEAAYHILEALQHHHHHH", "Percent Bound at 0.1 nM": 8},
      {"binder": "2H10 peptide-BLA fusion (other) CRIHLAHKCTPVSEKQLAEVVANTITPLMKAQSVPGMAVAVIYQGKPHYYTFGKADIAANKPVTPQTLFELGSISKTFTGVLGGDAIARGEISLDDAVTRYWPQLTGKQWQGIRMLDLATYTAGGLPLQVPDEVTDNASLLRFYQNWQPQWKPGTTRLYANASIGLFGALAVKPSGMPYEQAMTTRVLKPLKLDHTWINVPKAEEAHYAWGYRDGKAVRVSPGMLDAQAYGVKTNVQDMANWVMANMAPENVADASLKQGIALAQSRYWRIGSMYQGLGWEMLNWPVEANTVVEGSDSKVALAPLPVAEVNPPAPPVKASWVHKTGSTGGFGSYVAFIPEKQIGIVMLANTSYPNPARVEAAYHILEALQHHHHHH", "Percent Bound at 0.1 nM": 8}
    ]}
  ]
}
